According to patent US20100298542A1 (Chugai, published 2010):
Numbering of substitutions follows the chain as printed.

Experiments:
[1] = biological target: T1, soluble human FcRn (complex of FcRn extracellular domain and β2-microglobulin) (human, UniProt P55899 24-290; P16213 21-119); assay: SPR (Biacore 3000), antibody captured on Protein L or anti-human kappa antibody, human FcRn as analyte, pH 6.0, steady state affinity
T1 construct: The stated ranges are those of the expressed constructs and contain the signal regions; Expressed in HEK293H cells, purified on IgG Sepharose and HiTrap Q; also called hFcRn
Experimental: (§1) The binding to human FcRn was assessed using Biacore 3000. […] Human FcRn was then injected and the binding of the human FcRn to antibody was assessed. The affinity was computed using BIAevaluation Software. The obtained sensorgram was used to calculate the amount of hFcRn bound to the antibody immediately before the end of human FcRn injection. The affinity of the antibody for human FcRn was calculated by fitting with the steady state affinity method.

[2] = biological target: T1, soluble human FcRn (complex of FcRn …); assay: SPR (Biacore 3000), human FcRn, pH 6.0, steady state affinity
Experimental: as §1

[3] = biological target: T1, soluble human FcRn (complex of FcRn …); assay: SPR (Biacore 3000), method of Example 6: captured antibody, human FcRn as analyte, pH 6.0, steady state affinity
Experimental: as §1

T1 sequence (P55899 24-290 limits assumed, chain 1 of 2): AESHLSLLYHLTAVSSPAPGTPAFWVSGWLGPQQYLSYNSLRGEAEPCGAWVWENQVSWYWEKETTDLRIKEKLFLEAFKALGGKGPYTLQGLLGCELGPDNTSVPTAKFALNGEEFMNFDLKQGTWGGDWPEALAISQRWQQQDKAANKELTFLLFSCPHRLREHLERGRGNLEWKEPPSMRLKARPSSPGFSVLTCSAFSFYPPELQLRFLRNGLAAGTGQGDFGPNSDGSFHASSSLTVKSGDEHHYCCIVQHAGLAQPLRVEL
T1 sequence (P16213 21-119 limits assumed, chain 2 of 2): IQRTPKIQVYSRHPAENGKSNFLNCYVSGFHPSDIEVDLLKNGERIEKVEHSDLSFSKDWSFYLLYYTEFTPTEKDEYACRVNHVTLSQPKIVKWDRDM

B1: WT-M14ΔGK (humanized PM-1 variable region, M14ΔGK constant region) (antibody)
heavy: QVQLQESGPGLVRPSQTLSLTCTVSGYSITSDHAWSWVRQPPGRGLEWIGYISYSGITTYNPSLKSRVTMLRDTSKNQFSLRLSSVTAADTAVYYCARSLARTTAMDYWGQGSLVTVSSASTKGPSVFPLAPSSKSTSGGTAALGCLVKDYFPEPVTVSWNSGALTSGVHTFPAVLQSSGLYSLSSVVTVPSSNFGTQTYTCNVDHKPSNTKVDKTVERKSCVECPPCPAPPVAGPSVFLFPPKPKDTLMISRTPEVTCVVVDVSHEDPEVQFNWYVDGVEVHNAKTKPREEQFNSTFRVVSVLTVVHQDWLNGKEYKCKVSNKGLPSSIEKTISKAKGQPREPQVYTLPPSREEMTKNQVSLTCLVKGFYPSDIAVEWESNGQPENNYKTTPPVLDSDGSFFLYSKLTVDKSRWQQGNVFSCSVMHEALHNHYTQKSLSLSP
light: DIQMTQSPSSLSASVGDSVTITCQASQDISSYLNWYQQKPGKAPELLIYYGSELHSGVPSRFSGSGSGTDFTFTISSLEAEDAATYYCQQGNSLPYTFGQGTKVEIE
notes: copies: 2 + 2
Kd [1]: 1.85 µM

B2: WT-M44 (humanized PM-1 antibody, IgG1 constant region with alanine at position 434, EU numbering) (antibody)
heavy: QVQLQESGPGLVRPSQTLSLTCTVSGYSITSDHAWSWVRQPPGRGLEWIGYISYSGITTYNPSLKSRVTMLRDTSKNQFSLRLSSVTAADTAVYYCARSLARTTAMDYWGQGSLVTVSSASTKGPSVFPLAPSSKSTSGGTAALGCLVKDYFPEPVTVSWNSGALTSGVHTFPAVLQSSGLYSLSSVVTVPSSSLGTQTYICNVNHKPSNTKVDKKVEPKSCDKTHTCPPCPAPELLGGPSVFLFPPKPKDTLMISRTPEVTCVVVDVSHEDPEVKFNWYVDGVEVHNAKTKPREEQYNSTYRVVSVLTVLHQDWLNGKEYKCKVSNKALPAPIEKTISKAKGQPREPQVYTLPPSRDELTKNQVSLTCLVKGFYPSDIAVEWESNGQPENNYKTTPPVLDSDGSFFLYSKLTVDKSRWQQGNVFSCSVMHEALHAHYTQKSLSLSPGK
light: B1 light
notes: copies: 2 + 2
Kd [1]: 0.59 µM
binding as a multiple of that of WT-IgG1 [2]: ~2.7 times that of WT-IgG1

B3: WT-M58 (humanized PM-1 variable region, M58 constant region) (antibody)
heavy: B1 heavy with H266Q, S328A, S329P, A337T, R353Q, V395M, Q417E
light: B1 light
notes: copies: 2 + 2
Kd [1]: 1.17 µM
binding as a multiple of that of WT-IgG1 [2]: ~1.4 times that of WT-IgG1
Kd [3]: 1.03 µM

B4: WT-M73 (humanized PM-1 variable region, M73 constant region) (antibody)
heavy: B1 heavy with H266Q, S328A, S329P, A337T, R353Q, V395M, Q417E, N432A
light: B1 light
notes: copies: 2 + 2
Kd [1]: 0.42 µM
binding as a multiple of that of WT-IgG1 [2]: ~3.8 times that of WT-IgG1
